Results from publication doi:10.1101/2025.08.18.670068, “Computational Design of Soluble CCR8 Analogues with Preserved Antibody Binding” (bioRxiv, 2025).

Molecular target: T1, Wild-type CCR8 used as an assay control (Homo sapiens, UniProt P51685)
T1 construct: C-C chemokine receptor 8 (CCR8), human, wild type; Detergent-solubilised; 0.05% DDM and 0.01% CHS in the SPR running buffer; also called WT-CCR8; wild-type Human CCR8 protein; source: bought: Acro Biosystems (Cat. #CC8-H52D6)
Assay: SPR; Biacore 8K; mAb1 IgG1 captured on Protein A chip (about 400 RU); wild-type CCR8 as analyte; 10 mM HEPES, 150 mM NaCl, 3 mM EDTA, 0.005% Tween-20, pH 7.4, with 0.05% DDM and 0.01% CHS; steady-state affinity fit
Conditions: both partners purified

B1: mAb1 in full length human IgG1 format (antibody, V domains shown)
VH: QSVEESGGRLVTPGTPLTLTCTVSGFSLSNYAMIWVRQAPGEGLEWVGTISLGGYTYYANWAKGRFTISKTSTTVDLKISSPTTEDTATYFCARARWSTDSAIYTYAFDPWGPGTLVTVSS
VL: AYDMTQTPASVEVAVGGTVTIKCQASQSISSYLSWYQQKPGQRPELLIYKASTLASGVSSRFKGSGSGTQFTLTISDLEAADAATYYCQQGYTSSNIDNIFGGGTEVVVK
notes: VH of mAb1; constant region of human IgG1 heavy chain ('full length human IgG1 format'); light chain of mAb1; IgG1; captured on a Protein A chip for SPR; source: CHO cells, purified by one step Protein A chromatography
  Kd: 190 nM
